Source: patent US20260167699A1 (Chugai, published 2026)

B1: GpH7-A5/GpH7-B3 variant T335_14T/GpL16-k0 (antibody, human IgG1, kappa)
heavy 1: not shown
heavy 2: not shown
light: DIVMTQSPLSLPVTPGEPASISCQASESLVHSNRNTYLHWYLQKPGQSPQLLIYKVSNRFSGVPDRFSGSGSGTDFTLKISRVEAEDVGVYYCSQNTHVPPTFGQGTKVEIERTVAAPSVFIFPPSDEQLKSGTASVVCLLNNFYPREAKVQWKVDNALQSGNSQESVTEQDSKDSTYSLSSTLTLSKADYEKHKVYACEVTHQGLSSPVTKSFNRGEC
notes: also called He Ab
B2: GpH7-A5/GpH7-B3 variant E333_02A/GpL16-k0 (antibody, human IgG1, kappa)
heavy 1: not shown
heavy 2: not shown
light: DIVMTQSPLSLPVTPGEPASISCQASESLVHSNRNTYLHWYLQKPGQSPQLLIYKVSNRFSGVPDRFSGSGSGTDFTLKISRVEAEDVGVYYCSQNTHVPPTFGQGTKVEIERTVAAPSVFIFPPSDEQLKSGTASVVCLLNNFYPREAKVQWKVDNALQSGNSQESVTEQDSKDSTYSLSSTLTLSKADYEKHKVYACEVTHQGLSSPVTKSFNRGEC
notes: heterodimerized IgG1 (He Ab), mutation in one H chain only; also called He Ab
B3: GpH7-A5/GpH7-B3 variant E333_06M/GpL16-k0 (antibody, human IgG1, kappa)
heavy 1: not shown
heavy 2: not shown
light: DIVMTQSPLSLPVTPGEPASISCQASESLVHSNRNTYLHWYLQKPGQSPQLLIYKVSNRFSGVPDRFSGSGSGTDFTLKISRVEAEDVGVYYCSQNTHVPPTFGQGTKVEIERTVAAPSVFIFPPSDEQLKSGTASVVCLLNNFYPREAKVQWKVDNALQSGNSQESVTEQDSKDSTYSLSSTLTLSKADYEKHKVYACEVTHQGLSSPVTKSFNRGEC
notes: as for B2
B4: GpH7-A5/GpH7-B3 variant E333_05P/GpL16-k0 (antibody, human IgG1, kappa)
heavy 1: not shown
heavy 2: not shown
light: DIVMTQSPLSLPVTPGEPASISCQASESLVHSNRNTYLHWYLQKPGQSPQLLIYKVSNRFSGVPDRFSGSGSGTDFTLKISRVEAEDVGVYYCSQNTHVPPTFGQGTKVEIERTVAAPSVFIFPPSDEQLKSGTASVVCLLNNFYPREAKVQWKVDNALQSGNSQESVTEQDSKDSTYSLSSTLTLSKADYEKHKVYACEVTHQGLSSPVTKSFNRGEC
notes: as for B2
B5: GpH7-A5/GpH7-B3 variant E333_01G/GpL16-k0 (antibody, human IgG1, kappa)
heavy 1: not shown
heavy 2: not shown
light: DIVMTQSPLSLPVTPGEPASISCQASESLVHSNRNTYLHWYLQKPGQSPQLLIYKVSNRFSGVPDRFSGSGSGTDFTLKISRVEAEDVGVYYCSQNTHVPPTFGQGTKVEIERTVAAPSVFIFPPSDEQLKSGTASVVCLLNNFYPREAKVQWKVDNALQSGNSQESVTEQDSKDSTYSLSSTLTLSKADYEKHKVYACEVTHQGLSSPVTKSFNRGEC
notes: as for B2
B6: GpH7-A5/GpH7-B3 variant A330_11K/GpL16-k0 (antibody, human IgG1, kappa)
heavy 1: not shown
heavy 2: not shown
light: DIVMTQSPLSLPVTPGEPASISCQASESLVHSNRNTYLHWYLQKPGQSPQLLIYKVSNRFSGVPDRFSGSGSGTDFTLKISRVEAEDVGVYYCSQNTHVPPTFGQGTKVEIERTVAAPSVFIFPPSDEQLKSGTASVVCLLNNFYPREAKVQWKVDNALQSGNSQESVTEQDSKDSTYSLSSTLTLSKADYEKHKVYACEVTHQGLSSPVTKSFNRGEC
notes: as for B2
B7: GpH7-A5/GpH7-B3 variant A330_12R/GpL16-k0 (antibody, human IgG1, kappa)
heavy 1: not shown
heavy 2: not shown
light: DIVMTQSPLSLPVTPGEPASISCQASESLVHSNRNTYLHWYLQKPGQSPQLLIYKVSNRFSGVPDRFSGSGSGTDFTLKISRVEAEDVGVYYCSQNTHVPPTFGQGTKVEIERTVAAPSVFIFPPSDEQLKSGTASVVCLLNNFYPREAKVQWKVDNALQSGNSQESVTEQDSKDSTYSLSSTLTLSKADYEKHKVYACEVTHQGLSSPVTKSFNRGEC
notes: as for B2
B8: GpH7-A5/GpH7-B3 variant A330_05P/GpL16-k0 (antibody, human IgG1, kappa)
heavy 1: not shown
heavy 2: not shown
light: DIVMTQSPLSLPVTPGEPASISCQASESLVHSNRNTYLHWYLQKPGQSPQLLIYKVSNRFSGVPDRFSGSGSGTDFTLKISRVEAEDVGVYYCSQNTHVPPTFGQGTKVEIERTVAAPSVFIFPPSDEQLKSGTASVVCLLNNFYPREAKVQWKVDNALQSGNSQESVTEQDSKDSTYSLSSTLTLSKADYEKHKVYACEVTHQGLSSPVTKSFNRGEC
notes: as for B2
B9: GpH7-A5/GpH7-B3 variant A330_15Y/GpL16-k0 (antibody, human IgG1, kappa)
heavy 1: not shown
heavy 2: not shown
light: DIVMTQSPLSLPVTPGEPASISCQASESLVHSNRNTYLHWYLQKPGQSPQLLIYKVSNRFSGVPDRFSGSGSGTDFTLKISRVEAEDVGVYYCSQNTHVPPTFGQGTKVEIERTVAAPSVFIFPPSDEQLKSGTASVVCLLNNFYPREAKVQWKVDNALQSGNSQESVTEQDSKDSTYSLSSTLTLSKADYEKHKVYACEVTHQGLSSPVTKSFNRGEC
notes: as for B2
B10: GpH7-A5/GpH7-B3 variant A330_06M/GpL16-k0 (antibody, human IgG1, kappa)
heavy 1: not shown
heavy 2: not shown
light: DIVMTQSPLSLPVTPGEPASISCQASESLVHSNRNTYLHWYLQKPGQSPQLLIYKVSNRFSGVPDRFSGSGSGTDFTLKISRVEAEDVGVYYCSQNTHVPPTFGQGTKVEIERTVAAPSVFIFPPSDEQLKSGTASVVCLLNNFYPREAKVQWKVDNALQSGNSQESVTEQDSKDSTYSLSSTLTLSKADYEKHKVYACEVTHQGLSSPVTKSFNRGEC
notes: as for B2
B11: GpH7-A5/GpH7-B3 variant E333_03V/GpL16-k0 (antibody, human IgG1, kappa)
heavy 1: not shown
heavy 2: not shown
light: DIVMTQSPLSLPVTPGEPASISCQASESLVHSNRNTYLHWYLQKPGQSPQLLIYKVSNRFSGVPDRFSGSGSGTDFTLKISRVEAEDVGVYYCSQNTHVPPTFGQGTKVEIERTVAAPSVFIFPPSDEQLKSGTASVVCLLNNFYPREAKVQWKVDNALQSGNSQESVTEQDSKDSTYSLSSTLTLSKADYEKHKVYACEVTHQGLSSPVTKSFNRGEC
notes: as for B2
B12: GpH7-A5/GpH7-B3 variant E333_07I/GpL16-k0 (antibody, human IgG1, kappa)
heavy 1: not shown
heavy 2: not shown
light: DIVMTQSPLSLPVTPGEPASISCQASESLVHSNRNTYLHWYLQKPGQSPQLLIYKVSNRFSGVPDRFSGSGSGTDFTLKISRVEAEDVGVYYCSQNTHVPPTFGQGTKVEIERTVAAPSVFIFPPSDEQLKSGTASVVCLLNNFYPREAKVQWKVDNALQSGNSQESVTEQDSKDSTYSLSSTLTLSKADYEKHKVYACEVTHQGLSSPVTKSFNRGEC
notes: as for B2
B13: GpH7-A5/GpH7-B3 variant E333_04F/GpL16-k0 (antibody, human IgG1, kappa)
heavy 1: not shown
heavy 2: not shown
light: DIVMTQSPLSLPVTPGEPASISCQASESLVHSNRNTYLHWYLQKPGQSPQLLIYKVSNRFSGVPDRFSGSGSGTDFTLKISRVEAEDVGVYYCSQNTHVPPTFGQGTKVEIERTVAAPSVFIFPPSDEQLKSGTASVVCLLNNFYPREAKVQWKVDNALQSGNSQESVTEQDSKDSTYSLSSTLTLSKADYEKHKVYACEVTHQGLSSPVTKSFNRGEC
notes: as for B2

Tests used:
Assay in all cases: SPR; % of GpH7-A5/GpH7-B3/GpL16-k0
[1] = molecular target: T1, FcγRIIa(H) extracellular domain with C-terminal His tag (human, UniProt P12318 34-217)
T1 construct: extracellular domain; H131 allotype; also called 2aH; CD32
T1 sequence: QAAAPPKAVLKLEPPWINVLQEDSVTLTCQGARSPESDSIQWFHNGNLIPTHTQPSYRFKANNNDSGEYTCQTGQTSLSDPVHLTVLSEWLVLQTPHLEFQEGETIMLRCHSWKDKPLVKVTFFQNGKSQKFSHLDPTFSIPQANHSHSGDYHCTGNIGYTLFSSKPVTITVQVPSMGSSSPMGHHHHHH

[2] = molecular target: T2, FcγRIIb extracellular domain with C-terminal His tag (human, UniProt P31994 43-217)
T2 construct: extracellular domain; also called 2b; CD32
T2 sequence: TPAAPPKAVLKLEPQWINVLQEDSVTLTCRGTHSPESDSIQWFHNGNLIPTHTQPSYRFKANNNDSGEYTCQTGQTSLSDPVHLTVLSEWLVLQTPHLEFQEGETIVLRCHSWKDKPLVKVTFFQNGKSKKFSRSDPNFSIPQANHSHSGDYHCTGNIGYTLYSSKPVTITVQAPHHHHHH

[3] = molecular target: T3, FcγRIa extracellular domain with C-terminal His tag (human, UniProt P12314 16-292)
T3 construct: extracellular domain; also called 1a; CD64

[4] = molecular target: T4, FcγRIIIa extracellular domain with C-terminal His tag (human, UniProt P08637 17-208)
T4 construct: extracellular domain; also called 3a; CD16

[5] = molecular target: T5, FcγRIIa(R) extracellular domain with C-terminal His tag (human, UniProt P12318 34-217)
T5 construct: extracellular domain; R131 allotype; also called 2aR; CD32
T5 sequence: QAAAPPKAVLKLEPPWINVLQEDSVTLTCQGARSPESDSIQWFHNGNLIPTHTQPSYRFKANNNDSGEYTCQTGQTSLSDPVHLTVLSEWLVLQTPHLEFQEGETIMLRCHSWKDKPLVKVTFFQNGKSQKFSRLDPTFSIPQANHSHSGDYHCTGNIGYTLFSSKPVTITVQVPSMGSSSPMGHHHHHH

T3 sequence (P12314 other isoform, or with tags, fused parts or gaps): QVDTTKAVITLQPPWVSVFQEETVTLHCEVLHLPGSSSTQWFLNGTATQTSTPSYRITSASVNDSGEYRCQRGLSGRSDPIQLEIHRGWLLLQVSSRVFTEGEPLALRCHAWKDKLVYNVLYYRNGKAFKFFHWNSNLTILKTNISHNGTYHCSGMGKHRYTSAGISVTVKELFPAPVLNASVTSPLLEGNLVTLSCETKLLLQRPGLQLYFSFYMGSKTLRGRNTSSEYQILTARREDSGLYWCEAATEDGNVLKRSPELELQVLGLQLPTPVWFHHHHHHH
T4 sequence (P08637 other isoform, or with tags, fused parts or gaps): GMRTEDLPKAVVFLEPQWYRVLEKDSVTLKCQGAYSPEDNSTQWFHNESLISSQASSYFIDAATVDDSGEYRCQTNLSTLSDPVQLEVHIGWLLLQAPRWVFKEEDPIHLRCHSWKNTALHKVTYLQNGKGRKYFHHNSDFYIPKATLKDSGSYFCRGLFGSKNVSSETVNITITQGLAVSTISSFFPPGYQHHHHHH

| Binder | He/Con 2aH [1] [%] | He/Con 2b [2] [%] | He/Con 1a [3] [%] | He/Con 3a [4] [%] | He/Con 2aR [5] [%] |
| --- | --- | --- | --- | --- | --- |
| B1 | 112 | 116 | 110 | 104 | 116 |
| B2 | 115 | 108 | 97.7 | 108 | 128 |
| B3 | 110 | 110 | 96.7 | 100 | 132 |
| B4 | 112 | 126 | 96.9 | 100 | 143 |
| B5 | 112 | 105 | 97.2 | 101 | 127 |
| B6 | 118 | 107 | 107 | 91.8 | 124 |
| B7 | 116 | 95.8 | 103 | 77.3 | 116 |
| B8 | 92.6 | 154 | 105 | 152 | 129 |
| B9 | 106 | 107 | 108 | 122 | 114 |
| B10 | 101 | 90.9 | 108 | 139 | 107 |
| B11 | 112 | 120 | 99.4 | 106 | 135 |
| B12 | 113 | 124 | 96.5 | 100 | 142 |
| B13 | 116 | 122 | 96.9 | 104 | 139 |
